# Measured values published in article PMC4837458.
# Residue numbers refer to the chain shown, from its start.
# T1: dPPR-U8C2 D348S;D383S (designed (synthetic; NTD/CTD from Zea mays PPR10)), PDB:5I9G_1
# T1 sequence: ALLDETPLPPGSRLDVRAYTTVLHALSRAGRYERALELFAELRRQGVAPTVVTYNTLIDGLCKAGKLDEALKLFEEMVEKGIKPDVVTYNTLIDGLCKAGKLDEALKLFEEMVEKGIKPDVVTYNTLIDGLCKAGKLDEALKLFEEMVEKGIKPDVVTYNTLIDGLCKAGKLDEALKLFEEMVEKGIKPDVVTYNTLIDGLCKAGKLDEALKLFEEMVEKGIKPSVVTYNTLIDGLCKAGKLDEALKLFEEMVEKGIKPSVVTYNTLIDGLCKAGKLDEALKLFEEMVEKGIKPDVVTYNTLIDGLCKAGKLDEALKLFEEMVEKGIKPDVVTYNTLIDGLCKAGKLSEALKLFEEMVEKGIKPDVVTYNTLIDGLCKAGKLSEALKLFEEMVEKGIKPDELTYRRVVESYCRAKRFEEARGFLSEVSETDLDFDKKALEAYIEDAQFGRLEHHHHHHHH
# T2: dPPR-U8C2 (designed (synthetic; NTD/CTD from Zea …, UniProt PDB:5I9G_1 1-460, D348S;D383S)
# T2 sequence: T1 sequence
# T3: dPPR-U10 (designed (synthetic; NTD/CTD from Zea …, UniProt PDB:5I9F_1 1-460)
# T3 chain: T1 sequence with S225D, S260D, S348D, S383D
# Tests used:
# [1] = test system: dPPR-NN (designed (synthetic; NTD/CTD from Zea mays PPR10)); experiment: EMSA; settings: 5 mM Mg2+; apparent Kd; EMSA: 25 mM Tris-HCl pH 8.0, 5 mM MgCl2, 5 mM DTT, 0.1 mg/ml BSA, 50 ng/ml heparin, 10% glycerol, ~2 nM 32P-RNA, 20 min on ice
# [2] = test system: T1, dPPR-U8C2 D348S;D383S (designed (synthetic; NTD/CTD from Zea mays PPR10)), PDB:5I9G_1; experiment: EMSA; settings: 5 mM Mg2+; apparent Kd; EMSA: 25 mM Tris-HCl pH 8.0, 5 mM MgCl2, 5 mM DTT, 0.1 mg/ml BSA, 50 ng/ml heparin, 10% glycerol, ~2 nM 32P-RNA, 20 min on ice
# [3] = test system: dPPR-SD (designed (synthetic; NTD/CTD from Zea mays PPR10)); experiment: EMSA; settings: 5 mM Mg2+; apparent Kd; EMSA: 25 mM Tris-HCl pH 8.0, 5 mM MgCl2, 5 mM DTT, 0.1 mg/ml BSA, 50 ng/ml heparin, 10% glycerol, ~2 nM 32P-RNA, 20 min on ice
# [4] = test system: dPPR-U8G2 N318T;N353T (designed (synthetic; NTD/CTD from Zea mays PPR10)), PDB:5I9H_1; experiment: EMSA; settings: 5 mM Mg2+; apparent Kd; EMSA: 25 mM Tris-HCl pH 8.0, 5 mM MgCl2, 5 mM DTT, 0.1 mg/ml BSA, 50 ng/ml heparin, 10% glycerol, ~2 nM 32P-RNA, 20 min on ice
# [5] = test system: dPPR-U8A2 N318S;D348N;N353S;D383N (designed (synthetic; NTD/CTD from Zea mays PPR10)), PDB:5I9D_1; experiment: EMSA; settings: 5 mM Mg2+; apparent Kd; EMSA: 25 mM Tris-HCl pH 8.0, 5 mM MgCl2, 5 mM DTT, 0.1 mg/ml BSA, 50 ng/ml heparin, 10% glycerol, ~2 nM 32P-RNA, 20 min on ice
# [6] = test system: dPPR-TN (designed (synthetic; NTD/CTD from Zea mays PPR10)); experiment: EMSA; settings: 5 mM Mg2+; apparent Kd; EMSA: 25 mM Tris-HCl pH 8.0, 5 mM MgCl2, 5 mM DTT, 0.1 mg/ml BSA, 50 ng/ml heparin, 10% glycerol, ~2 nM 32P-RNA, 20 min on ice
# [7] = test system: dPPR-4 (designed (synthetic; NTD/CTD from Zea mays PPR10)); experiment: EMSA; settings: 5 mM Mg2+; apparent Kd; EMSA: 25 mM Tris-HCl pH 8.0, 5 mM MgCl2, 5 mM DTT, 0.1 mg/ml BSA, 50 ng/ml heparin, 10% glycerol, ~2 nM 32P-RNA, 20 min on ice
# [8] = molecular target: T2, dPPR-U8C2; experiment: X-ray crystallography; 2.30 A; EMSA: 25 mM Tris-HCl pH 8.0, 5 mM MgCl2, 5 mM DTT, 0.1 mg/ml BSA, 50 ng/ml heparin, 10% glycerol, ~2 nM 32P-RNA, 20 min on ice
# [9] = molecular target: T2, dPPR-U8C2; experiment: EMSA; C5,C6 to U; EMSA: 25 mM Tris-HCl pH 8.0, 5 mM MgCl2, 5 mM DTT, 0.1 mg/ml BSA, 50 ng/ml heparin, 10% glycerol, ~2 nM 32P-RNA, 20 min on ice
# [10] = molecular target: T3, dPPR-U10; experiment: EMSA; 5 mM Mg2+; apparent Kd; EMSA: 25 mM Tris-HCl pH 8.0, 5 mM MgCl2, 5 mM DTT, 0.1 mg/ml BSA, 50 ng/ml heparin, 10% glycerol, ~2 nM 32P-RNA, 20 min on ice
# [11] = molecular target: T3, dPPR-U10; experiment: X-ray crystallography; 2.20 A; EMSA: 25 mM Tris-HCl pH 8.0, 5 mM MgCl2, 5 mM DTT, 0.1 mg/ml BSA, 50 ng/ml heparin, 10% glycerol, ~2 nM 32P-RNA, 20 min on ice
molecule,measurement,setting,value
UUUUCCUUUU [U8C2 target],Kd,[1],14.6 nM
same,Kd,[2],18.5 nM
UUUUGGUUUU [U8G2 target],Kd,[3],31.1 nM
same,Kd,[4],29.8 nM
UUUUAAUUUU [U8A2 target],Kd,[5],23.8 nM
same,Kd,[6],58.9 nM
UUCCAGAU [dPPR-4 target],Kd,[7],24.6 nM
UUUUUUUUUU [U10 target],Kd,[1],15.9 nM
GGGGUUUUCCUUUUCCCC (ssRNA) [18-nt U8C2 crystal RNA],binding result,[8],binds
UUUUUUUUUU (ssRNA) [U10 target],binding result,[9],no binding
same,Kd,[10],74.3 ± 7.9 nM
GGGGUUUUUUUUUUCCCC (ssRNA) [18-nt U10 crystal RNA],binding result,[11],binds
